According to patent US20240124553A1:
Where “and” joins values, the source holds several entries; their conditions need not be identical. Identical values can stand only once. Like-named read-outs stand apart in the source and are kept apart here.

Assays:
[1] = target: CHIKV virus-like particles (strain 37997) (chikungunya virus)
[2] = target: CHIKV virus-like particles (strain 37997) (chikungunya virus); assay: SPR, […], kinetic fit ([…]
[3] = target: CHIKV virus-like particles (strain 37997) (chikungunya virus); remark: listed apart in the source
[4] = target: CHIKV virus-like particles (strain 37997) (chikungunya virus); remark: listed apart in the source
[5] = target: CHIKV virus-like particles (strain 37997) (chikungunya virus); remark: listed apart in the source
[6] = target: Sindbis virus strain TR339 (virions; also structural proteins on infected Vero cells) (Sindbis virus)
[7] = target: CHIKV E2-6K-E1 envelope proteins (strain S27) with E2 C201A (Chikungunya virus strain S27) (UniProt Q8JUX5); assay: flow cytometry, transfected 293T cells
[8] = target: CHIKV E2-6K-E1 envelope proteins (strain S27) with E2 C203A (Chikungunya virus strain S27) (UniProt Q8JUX5); assay: flow cytometry, transfected 293T cells
[9] = target: CHIKV E2-6K-E1 envelope proteins (strain S27) with E2 C220A (Chikungunya virus strain S27) (UniProt Q8JUX5); assay: flow cytometry, transfected 293T cells
[10] = target: CHIKV E2-6K-E1 envelope proteins (strain S27) with E2 G186A (Chikungunya virus strain S27) (UniProt Q8JUX5); assay: flow cytometry, transfected 293T cells
[11] = target: CHIKV E2-6K-E1 envelope proteins (strain S27) with E2 G204A (Chikungunya virus strain S27) (UniProt Q8JUX5); assay: flow cytometry, transfected 293T cells
[12] = target: CHIKV E2-6K-E1 envelope proteins (strain S27) with E2 G205A (Chikungunya virus strain S27) (UniProt Q8JUX5); assay: flow cytometry, transfected 293T cells
[13] = target: CHIKV E2-6K-E1 envelope proteins (strain S27) with E2 G209A (Chikungunya virus strain S27) (UniProt Q8JUX5); assay: flow cytometry, transfected 293T cells
[14] = target: CHIKV E2-6K-E1 envelope proteins (strain S27) with E2 I190A (Chikungunya virus strain S27) (UniProt Q8JUX5); assay: flow cytometry, transfected 293T cells
[15] = target: CHIKV E2-6K-E1 envelope proteins (strain S27) with E2 I211A (Chikungunya virus strain S27) (UniProt Q8JUX5); assay: flow cytometry, transfected 293T cells
[16] = target: CHIKV E2-6K-E1 envelope proteins (strain S27) with E2 I217A (Chikungunya virus strain S27) (UniProt Q8JUX5); assay: flow cytometry, transfected 293T cells
[17] = target: CHIKV E2-6K-E1 envelope proteins (strain S27) with E2 K189A (Chikungunya virus strain S27) (UniProt Q8JUX5); assay: flow cytometry, transfected 293T cells
[18] = target: CHIKV E2-6K-E1 envelope proteins (strain S27) with E2 K200A (Chikungunya virus strain S27) (UniProt Q8JUX5); assay: flow cytometry, transfected 293T cells
[19] = target: CHIKV E2-6K-E1 envelope proteins (strain S27) with E2 K215A (Chikungunya virus strain S27) (UniProt Q8JUX5); assay: flow cytometry, transfected 293T cells
[20] = target: CHIKV E2-6K-E1 envelope proteins (strain S27) with E2 L180A (Chikungunya virus strain S27) (UniProt Q8JUX5); assay: flow cytometry, transfected 293T cells
[21] = target: CHIKV E2-6K-E1 envelope proteins (strain S27) with E2 L181A (Chikungunya virus strain S27) (UniProt Q8JUX5); assay: flow cytometry, transfected 293T cells
[22] = target: CHIKV E2-6K-E1 envelope proteins (strain S27) with E2 L210A (Chikungunya virus strain S27) (UniProt Q8JUX5); assay: flow cytometry, transfected 293T cells
[23] = target: CHIKV E2-6K-E1 envelope proteins (strain S27) with E2 N187A (Chikungunya virus strain S27) (UniProt Q8JUX5); assay: flow cytometry, transfected 293T cells
[24] = target: CHIKV E2-6K-E1 envelope proteins (strain S27) with E2 N193A (Chikungunya virus strain S27) (UniProt Q8JUX5); assay: flow cytometry, transfected 293T cells
[25] = target: CHIKV E2-6K-E1 envelope proteins (strain S27) with E2 N202A (Chikungunya virus strain S27) (UniProt Q8JUX5); assay: flow cytometry, transfected 293T cells
[26] = target: CHIKV E2-6K-E1 envelope proteins (strain S27) with E2 N218A (Chikungunya virus strain S27) (UniProt Q8JUX5); assay: flow cytometry, transfected 293T cells
[27] = target: CHIKV E2-6K-E1 envelope proteins (strain S27) with E2 N219A (Chikungunya virus strain S27) (UniProt Q8JUX5); assay: flow cytometry, transfected 293T cells
[28] = target: CHIKV E2-6K-E1 envelope proteins (strain S27) with E2 Q183A (Chikungunya virus strain S27) (UniProt Q8JUX5); assay: flow cytometry, transfected 293T cells
[29] = target: CHIKV E2-6K-E1 envelope proteins (strain S27) with E2 Q184A (Chikungunya virus strain S27) (UniProt Q8JUX5); assay: flow cytometry, transfected 293T cells
[30] = target: CHIKV E2-6K-E1 envelope proteins (strain S27) with E2 Q195A (Chikungunya virus strain S27) (UniProt Q8JUX5); assay: flow cytometry, transfected 293T cells
[31] = target: CHIKV E2-6K-E1 envelope proteins (strain S27) with E2 R198A (Chikungunya virus strain S27) (UniProt Q8JUX5); assay: flow cytometry, transfected 293T cells
[32] = target: CHIKV E2-6K-E1 envelope proteins (strain S27) with E2 S182A (Chikungunya virus strain S27) (UniProt Q8JUX5); assay: flow cytometry, transfected 293T cells
[33] = target: CHIKV E2-6K-E1 envelope proteins (strain S27) with E2 S185A (Chikungunya virus strain S27) (UniProt Q8JUX5); assay: flow cytometry, transfected 293T cells
[34] = target: CHIKV E2-6K-E1 envelope proteins (strain S27) with E2 S194A (Chikungunya virus strain S27) (UniProt Q8JUX5); assay: flow cytometry, transfected 293T cells
[35] = target: CHIKV E2-6K-E1 envelope proteins (strain S27) with E2 S206A (Chikungunya virus strain S27) (UniProt Q8JUX5); assay: flow cytometry, transfected 293T cells
[36] = target: CHIKV E2-6K-E1 envelope proteins (strain S27) with E2 T191A (Chikungunya virus strain S27) (UniProt Q8JUX5); assay: flow cytometry, transfected 293T cells
[37] = target: CHIKV E2-6K-E1 envelope proteins (strain S27) with E2 T196A (Chikungunya virus strain S27) (UniProt Q8JUX5); assay: flow cytometry, transfected 293T cells
[38] = target: CHIKV E2-6K-E1 envelope proteins (strain S27) with E2 T212A (Chikungunya virus strain S27) (UniProt Q8JUX5); assay: flow cytometry, transfected 293T cells
[39] = target: CHIKV E2-6K-E1 envelope proteins (strain S27) with E2 V188A (Chikungunya virus strain S27) (UniProt Q8JUX5); assay: flow cytometry, transfected 293T cells
[40] = target: CHIKV E2-6K-E1 envelope proteins (strain S27) with E2 V192A (Chikungunya virus strain S27) (UniProt Q8JUX5); assay: flow cytometry, transfected 293T cells
[41] = target: CHIKV E2-6K-E1 envelope proteins (strain S27) with E2 V197A (Chikungunya virus strain S27) (UniProt Q8JUX5); assay: flow cytometry, transfected 293T cells
[42] = target: CHIKV E2-6K-E1 envelope proteins (strain S27) with E2 V216A (Chikungunya virus strain S27) (UniProt Q8JUX5); assay: flow cytometry, transfected 293T cells
[43] = target: CHIKV E2-6K-E1 envelope proteins (strain S27) with E2 Y199A (Chikungunya virus strain S27) (UniProt Q8JUX5); assay: flow cytometry, transfected 293T cells
[44] = target: CHIKV virus-like particles (strain 37997) (chikungunya virus); remark: listed apart in the source
[45] = target: CHIKV virus-like particles (strain 37997) (chikungunya virus); remark: listed apart in the source
[46] = target: CHIKV virus-like particles (strain 37997) (chikungunya virus); remark: listed apart in the source
[47] = target: CHIKV virus-like particles (strain 37997) (chikungunya virus); remark: listed apart in the source
[48] = target: CHIKV strain 181/25 (virions; also E2-E1 shown on infected cells) (chikungunya virus); assay: cryo-EM of infectious CHIKV with Mxra8
[49] = target: CHIKV virus-like particles (strain 37997) (chikungunya virus); remark: listed apart in the source

Substance: cleaved human Mxra8 (human monomeric MXRA8) (from UniProt Q9BRK3 20-341) (receptor)
- Kd [1]: 60 nM and 300 nM
- Kd [2]: 98.3 nM and 210 nM

Substance: CHK-265 (murine anti-CHIKV mAb) (antibody)
- EC50 (read off the curve) [3]: 0.003 µg/mL

Substance: monovalent Du-D1-Mo-D2 MXRA8 (cleaved from the Fc fusion with GlySERIAS) (from UniProt Q9DBV4 23-65; Q9DBV4 195-293) (receptor)
- Kd [4]: 545 nM
- Kd [5]: 665 nM

Substance: duck MXRA8-Fc (Fc fusion)
- neutralisation of SINV-GFP infection; IC50 (read off the curve) [6]: 1 µg/mL

Substance: MAb C9 (antibody)
- Binding Reactivity (% WT) [7]: 65 % WT
- Binding Reactivity (% WT) [8]: 58.3 % WT
- Binding Reactivity (% WT) [9]: 104 % WT
- Binding Reactivity (% WT) [10]: 101 % WT
- Binding Reactivity (% WT) [11]: 106 % WT
- Binding Reactivity (% WT) [12]: 111 % WT
- Binding Reactivity (% WT) [13]: 108 % WT
- Binding Reactivity (% WT) [14]: 81.8 % WT
- Binding Reactivity (% WT) [15]: 126 % WT
- Binding Reactivity (% WT) [16]: 110 % WT
- Binding Reactivity (% WT) [17]: 129 % WT
- Binding Reactivity (% WT) [18]: 144 % WT
- Binding Reactivity (% WT) [19]: 143 % WT
- Binding Reactivity (% WT) [20]: 126 % WT
- Binding Reactivity (% WT) [21]: 110 % WT
- Binding Reactivity (% WT) [22]: 105 % WT
- Binding Reactivity (% WT) [23]: 123 % WT
- Binding Reactivity (% WT) [24]: 113 % WT
- Binding Reactivity (% WT) [25]: 96.2 % WT
- Binding Reactivity (% WT) [26]: 72 % WT
- Binding Reactivity (% WT) [27]: 117 % WT
- Binding Reactivity (% WT) [28]: 176 % WT
- Binding Reactivity (% WT) [29]: 135 % WT
- Binding Reactivity (% WT) [30]: 129 % WT
- Binding Reactivity (% WT) [31]: 122 % WT
- Binding Reactivity (% WT) [32]: 132 % WT
- Binding Reactivity (% WT) [33]: 105 % WT
- Binding Reactivity (% WT) [34]: 119 % WT
- Binding Reactivity (% WT) [35]: 96 % WT
- Binding Reactivity (% WT) [36]: 118 % WT
- Binding Reactivity (% WT) [37]: 99.8 % WT
- Binding Reactivity (% WT) [38]: 125 % WT
- Binding Reactivity (% WT) [39]: 141 % WT
- Binding Reactivity (% WT) [40]: 114 % WT
- Binding Reactivity (% WT) [41]: 83.8 % WT
- Binding Reactivity (% WT) [42]: 112 % WT
- Binding Reactivity (% WT) [43]: 122 % WT

Substance: Mxra8 cleaved from Mxra8-HRV-Fc (soluble monomeric mouse Mxra8) (from UniProt Q9DBV4 23-336) (receptor)
- Kd [44]: 200 nM
- Mxra8 molecules per virion (molecules per virion) [45]: 240
- Kd [46]: 84 nM and 270 nM
- Kd [1]: 60 nM and 300 nM
- Kd [47]: 183 nM and 224 nM
- kon [47]: 37000 M⁻¹ s⁻¹
- t1/2 [47]: 1.8 min
- Kd [2]: 83.9 nM and 270 nM
- Mxra8 proteins bound per particle (proteins per particle) [48]: 60

Substance: monovalent mouse MXRA8 (cleaved from mouse MXRA8-Fc with GlySERIAS) (from UniProt Q9DBV4 20-340) (receptor)
- Kd [4]: 68 nM
- Kd [49]: 76 nM

Substance: IM-CKV063 (antibody)
- Binding Reactivity (% WT) [7]: 47.7 % WT
- Binding Reactivity (% WT) [8]: 45.1 % WT
- Binding Reactivity (% WT) [9]: 95.2 % WT
- Binding Reactivity (% WT) [10]: 95.4 % WT
- Binding Reactivity (% WT) [11]: 91.5 % WT
- Binding Reactivity (% WT) [12]: 62 % WT
- Binding Reactivity (% WT) [13]: 99.8 % WT
- Binding Reactivity (% WT) [14]: 56.1 % WT
- Binding Reactivity (% WT) [15]: 77.2 % WT
- Binding Reactivity (% WT) [16]: 69.7 % WT
- Binding Reactivity (% WT) [17]: 109 % WT
- Binding Reactivity (% WT) [18]: 119 % WT
- Binding Reactivity (% WT) [19]: 102 % WT
- Binding Reactivity (% WT) [20]: 114 % WT
- Binding Reactivity (% WT) [21]: 87.9 % WT
- Binding Reactivity (% WT) [22]: 86.3 % WT
- Binding Reactivity (% WT) [23]: 114 % WT
- Binding Reactivity (% WT) [24]: 85.7 % WT
- Binding Reactivity (% WT) [25]: 92.8 % WT
- Binding Reactivity (% WT) [26]: 97.6 % WT
- Binding Reactivity (% WT) [27]: 98 % WT
- Binding Reactivity (% WT) [28]: 101 % WT
- Binding Reactivity (% WT) [29]: 121 % WT
- Binding Reactivity (% WT) [30]: 78.6 % WT
- Binding Reactivity (% WT) [31]: 98.2 % WT
- Binding Reactivity (% WT) [32]: 121 % WT
- Binding Reactivity (% WT) [33]: 108 % WT
- Binding Reactivity (% WT) [34]: 94 % WT
- Binding Reactivity (% WT) [35]: 119 % WT
- Binding Reactivity (% WT) [36]: 94.8 % WT
- Binding Reactivity (% WT) [37]: 83 % WT
- Binding Reactivity (% WT) [38]: 108 % WT
- Binding Reactivity (% WT) [39]: 114 % WT
- Binding Reactivity (% WT) [40]: 98.3 % WT
- Binding Reactivity (% WT) [41]: 67.4 % WT
- Binding Reactivity (% WT) [42]: 97.7 % WT
- Binding Reactivity (% WT) [43]: 79.8 % WT
